The source of these data is patent publication US20190077858A1 (KM BIOLOGICS, published 2019).

Assay [1] concerns the target T1, human IL-33 (MBL Medical & Biological Laboratories, Co., Ltd.) (human, UniProt O95760 112-270, limits assumed, biotinylated (Biotin-PEAC5-maleimide or Biotin-AC5 Sulfo-OSu)).
T1 construct: also called biotinylated human IL-33
T1 sequence (looked up): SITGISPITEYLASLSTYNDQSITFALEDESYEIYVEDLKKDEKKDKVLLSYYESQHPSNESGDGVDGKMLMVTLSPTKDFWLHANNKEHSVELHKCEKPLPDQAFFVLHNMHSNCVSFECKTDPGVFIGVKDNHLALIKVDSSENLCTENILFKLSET
Put plainly: ELISA on biotinylated cytokine on streptavidin plates.

Assay [2] deals with T2, human IL-1β (Funakoshi Corp.) (human, UniProt P01584 117-269, biotinylated (Biotin-PEAC5-maleimide or Biotin-AC5 Sulfo-OSu)).
T2 construct: also called biotinylated human IL-1β
Described as above.

Assay [3] deals with T3, mouse IL-18 (MBL Medical & Biological Laboratories, Co., Ltd.) (mouse, UniProt P70380 36-192, biotinylated (Biotin-PEAC5-maleimide or Biotin-AC5 Sulfo-OSu)).
T3 construct: also called biotinylated mouse IL-18
T3 sequence (looked up): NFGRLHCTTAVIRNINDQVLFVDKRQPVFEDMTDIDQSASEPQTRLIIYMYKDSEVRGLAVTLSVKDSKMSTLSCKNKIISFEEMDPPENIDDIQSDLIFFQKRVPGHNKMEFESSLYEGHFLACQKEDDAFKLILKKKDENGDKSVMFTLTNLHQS
Described as above.

Assay [4] concerns the target T4, rat IL-18 (Acris Antibodies GmbH) (rat, UniProt P97636 37-194, limits assumed, biotinylated (Biotin-PEAC5-maleimide or Biotin-AC5 Sulfo-OSu)).
T4 construct: also called biotinylated rat IL-18
T4 sequence (looked up): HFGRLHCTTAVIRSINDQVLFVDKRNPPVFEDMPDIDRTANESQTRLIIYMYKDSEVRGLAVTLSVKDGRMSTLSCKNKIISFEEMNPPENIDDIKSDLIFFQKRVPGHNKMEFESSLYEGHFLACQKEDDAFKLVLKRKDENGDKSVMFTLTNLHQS
The assay is described as above.

Assay [5] concerns the target T5, human IL-18 (MBL Medical & Biological Laboratories, Co., Ltd.) (human, UniProt Q14116 37-193, biotinylated (Biotin-PEAC5-maleimide or Biotin-AC5 Sulfo-OSu) in the streptavidin plate ELISAs and the panning; not labelled in the receptor binding and KG-1 assays).
T5 sequence (looked up): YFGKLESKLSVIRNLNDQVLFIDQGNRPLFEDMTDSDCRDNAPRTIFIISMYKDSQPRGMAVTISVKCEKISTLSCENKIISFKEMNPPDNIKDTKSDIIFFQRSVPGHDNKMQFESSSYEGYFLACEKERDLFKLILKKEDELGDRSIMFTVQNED
Description: cell-based or functional assay.

The target in assay [6] is T5, human IL-18 (MBL Medical & Biological …). Description: flow cytometry, blocking: human IL-18 100 ng/mL pre-mixed with the antibody, added to KG-1 cells, bound IL-18 detected with biotinylated 125-2H and streptavidin-PE; blocked partner: native IL-18 receptor [b]. As to the method: Human IL-18 (MBL Medical & Biological Laboratories, Co., Ltd.) was diluted to 100 ng/mL with 1% BSA-PBS-0.05% NaN₃-2% rabbit serum, mixed with the obtained anti-IL-18 antibody, and incubated at room temperature for 60 minutes. Then, the human IL-18/anti-IL-18 antibody mixed solution was added to KG-1 cells (1×10⁵ cells) cultured by a standard technique (e.g., a medium in which an RPMI1640 medium was supplemented with 10% bovine serum, 2 mM L-glutamine, 50 U/mL penicillin, and 50 μg/mL streptomycin), and reacted on ice. After 30 minutes, the supernatant was removed by centrifugation (1200 rpm, 3 min, 4° C.), and a biotinylated anti-IL-18 antibody 125-2H (MBL Medical & Biological Laboratories, Co., Ltd.) not inhibiting the binding between IL-18 and IL-18 receptor was added thereto and reacted on ice. After 30 minutes, the supernatant was removed by centrifugation (1200 rpm, 3 min, 4° C.), and streptavidin-PE (BD Becton, Dickinson and Company) was added thereto and reacted on ice for 30 minutes. After the reaction, the supernatant was removed by centrifugation (1200 rpm, 3 min, 4° C.), and the KG-1 cells were floated with 1% BSA-PBS-0.05% NaN₃-2% rabbit serum. The fluorescence intensity in the reacted KG-1 cells was measured using FACScan (BD Becton, Dickinson and Company).

The target of assay [7] is T6, K53A variant of human IL-18 (human, UniProt Q14116 37-193, K53A, biotinylated).
T6 construct: On the precursor entry the residue at 53 may not be K; the numbering is likely that of mature IL-18
T6 sequence (looked up): T5 sequence (looked up) with K53A
Description: ELISA on immobilised biotinylated K53A IL-18, antibody at 1 µg/mL. As to the method: Next, these human IL-18 proteins were biotinylated, then each diluted to 1 μg/mL with PBS (Sigma-Aldrich Corp.), added at 100 μL/well to Streptavidin plates (Nunc), and incubated at room temperature for 2 hours to immobilize them. After the immobilization, the plates were washed with PBST, and human IL-18BPa-hFc (R&D Systems, Inc.) or the IgG molecule-type 4A6D was prepared at 1 μg/mL with 1% BSA-PBS, added at 100 μL/well to the plates, and incubated at 37° C. After 1 hour, the plates were washed with PBST, and a detection antibody anti-hFc/HRP (Cosmo Bio Co., Ltd., The binding site) was added at 100 μL/well to the plates and incubated at 37° C. After 1 hour, the plates were washed with PBST, and TMB (Sigma-Aldrich Corp.) was added at 100 μL/well to the plates to develop color. After 30 minutes, the reaction was terminated with 1 M sulfuric acid, and the color values (O.D. 450 nm/650 nm) were measured using a microplate reader (Molecular Devices, Inc.).

Numbering of substitutions follows the chain as printed.

B1: IgG molecule-type 4A6D (antibody, V domains shown)
VH: EVQLVESGGGLVQPGGSMRLSCTASGFTFDEYAMSWVRQAPGKGLEWVSGISTGGGGTYYADSVEGRFTISRDNSKNTLYLQMNSLRAEDTAVYYCAKPWLSGSRSGDFWGQGTLVTVSS
VL: QSALTQPASVSGSPGQSITISCTGTSSDVGGYNYVSWYQQHPGKAPKLLIYEVSHRPSGVSDRFSGSKSGNTASLTISGLQAEDEADYYCSSFTSSSSLYVFGTGTKLTVL
notes: detected with anti-hFc, so human constant regions; also called human anti-human IL-18 antibody 4A6D
In the case of B1, the binding result is “no binding” in assay [1]; “no binding” in assay [2]; “no binding” in assay [3]; “no binding” in assay [4]; “binds” in assay [7]. Moreover, in assay [5], the “Neutralizing ability (IC50, nM)” value was 0.007 nM. The “IC50 (read off the curve)” value in assay [6] is about 0.2 µg/mL.
